Reference: article PMC5772613, “Phosphorylation induced cochaperone unfolding promotes kinase recruitment and client class-specific Hsp90 phosphorylation” (Nature Communications, 2018)
Square brackets hold non-standard residues; d marks the D form. Ends that are not written are not given here. pY = N[C@@H](Cc1ccc(OP(=O)(O)O)cc1)C(=O)O

Legend:
Details in all cases: both partners purified
Full-length Hsp90β [1] = molecular target: T1, Full-length Hsp90β (UniProt P08238 1-724); experiment: ITC; cochaperone Cdc37 (~300-400 μM, syringe) titrated into Hsp90β variants (~20-30 μM, cell); 25 °C; 20 mM Tris, 100 mM NaCl, 0.5 mM EDTA, 1 mM TCEP; single binding site model
T1 construct: Hsp90β (printed as full-length Hsp90αβ1), in pET28; also called Hsp90αβ1

Full-length Hsp90β [2] = molecular target: T1, Full-length Hsp90β; experiment: SEC; analytical, Biorad Enrich SEC 650, 4 °C; 20 mM Tris pH 7.5, 100 mM NaCl, 0.5 mM EDTA, 2 mM DTT; binary mixtures 1:1 and ternary mixtures Hsp90:Cdc37:bRaf 2:1:1, incubated 15 min at 4 °C
SH2 domain of Yes = molecular target: T2, SH2 domain of Yes (UniProt P07947 158-255); experiment: ITC; phosphopeptide (600-750 μM, syringe) titrated into SH2 domain (50-60 μM, cell); 25 °C; 20 mM Tris, 100 mM NaCl, 0.5 mM EDTA, 1 mM TCEP; single binding site model
T2 construct: Yes, SH2 domain; Gift of Bruce Mayer (pGEX); 15N-labelled for NMR; also called Yes^SH2; SH2^Yes; source: E. coli BL21(DE3), purified (GST column, PreScission cleavage, second GST column, Superdex 75); not shown: GST, N-terminal, cleaved
T2 sequence (P07947 158-255): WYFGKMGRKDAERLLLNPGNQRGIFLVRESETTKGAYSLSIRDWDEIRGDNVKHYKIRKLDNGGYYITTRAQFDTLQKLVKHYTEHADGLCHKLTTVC

T1 sequence (P08238 whole entry): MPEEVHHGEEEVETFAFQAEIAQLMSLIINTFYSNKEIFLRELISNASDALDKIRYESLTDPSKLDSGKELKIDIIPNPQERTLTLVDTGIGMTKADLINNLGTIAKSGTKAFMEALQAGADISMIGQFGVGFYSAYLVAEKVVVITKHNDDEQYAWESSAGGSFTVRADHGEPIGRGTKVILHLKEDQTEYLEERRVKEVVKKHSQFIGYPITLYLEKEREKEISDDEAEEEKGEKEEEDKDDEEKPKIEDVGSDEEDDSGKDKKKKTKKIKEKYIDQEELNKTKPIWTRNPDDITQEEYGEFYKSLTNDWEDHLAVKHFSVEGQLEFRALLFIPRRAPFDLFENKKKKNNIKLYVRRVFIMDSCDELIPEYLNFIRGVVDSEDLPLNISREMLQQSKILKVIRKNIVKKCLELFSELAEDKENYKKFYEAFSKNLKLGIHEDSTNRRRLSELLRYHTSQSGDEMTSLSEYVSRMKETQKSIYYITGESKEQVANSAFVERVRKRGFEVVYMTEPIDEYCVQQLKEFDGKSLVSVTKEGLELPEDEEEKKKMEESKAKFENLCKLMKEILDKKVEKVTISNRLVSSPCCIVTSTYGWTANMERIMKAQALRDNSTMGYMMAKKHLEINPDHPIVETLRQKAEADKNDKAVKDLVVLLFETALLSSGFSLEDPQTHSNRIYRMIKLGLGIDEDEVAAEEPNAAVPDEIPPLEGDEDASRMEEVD

binding result (Full-length Hsp90β [2]) | Binder | also measured
 | Full-length human Cdc37 (natural protein, UniProt Q16543 1-378, looked up, Cdc37 (p50), human, full length; isotope-labelled in some NMR samples; also called p50; wild-type Cdc37) MVDYSVWDHIEVSDDEDETHPNIDTASLFRWRHQARVERMEQFQKEKEELDRGCRECKRKVAECQRKLKELEVAEGGKAELERLQAEAQQLRKEERSWEQKLEEMRKKEKSMPWNVDTLSKDGFSKSMVNTKPEKTEEDSEEVREQKHKTFVEKYEKQIKHFGMLRRWDDSQKYLSDNVHLVCEETANYLVIWCIDLEVEEKCALMEQVAHQTIVMQFILELAKSLKVDPRACFRQFFTKIKTADRQYMEGFNDELEAFKERVRGRAKLRIEKAMKEYEEEERKKRLGPGGLDPVEVYESLPEELQKCFDVKDVQMLQDAISKMDPTDAKYHMQRCIDSGLWVPNSKASEAKEGEEAGPGDPLLEAVPKTGDEKDVSV | binding result (Full-length Hsp90β [1]): binds
binds | Full-length Cdc37 carrying the phosphomimetic mutation Y298E (natural protein, human, UniProt Q16543 1-378, looked up, Cdc37 (p50), human, full length, point mutant; Point mutants made by QuikChange; Methyl-labelled for the NMR sample with Hsp90α; also called Cdc37^Y298E) MVDYSVWDHIEVSDDEDETHPNIDTASLFRWRHQARVERMEQFQKEKEELDRGCRECKRKVAECQRKLKELEVAEGGKAELERLQAEAQQLRKEERSWEQKLEEMRKKEKSMPWNVDTLSKDGFSKSMVNTKPEKTEEDSEEVREQKHKTFVEKYEKQIKHFGMLRRWDDSQKYLSDNVHLVCEETANYLVIWCIDLEVEEKCALMEQVAHQTIVMQFILELAKSLKVDPRACFRQFFTKIKTADRQYMEGFNDELEAFKERVRGRAKLRIEKAMKEYEEEERKKRLGPGGLDPVEVEESLPEELQKCFDVKDVQMLQDAISKMDPTDAKYHMQRCIDSGLWVPNSKASEAKEGEEAGPGDPLLEAVPKTGDEKDVSV | 
binds | Cdc37 single phosphomimetic mutant Y4E (natural protein, human, UniProt Q16543 1-378, looked up, Cdc37 (p50), human, point mutant of the full-length construct; also called Cdc37^Y4E) MVDESVWDHIEVSDDEDETHPNIDTASLFRWRHQARVERMEQFQKEKEELDRGCRECKRKVAECQRKLKELEVAEGGKAELERLQAEAQQLRKEERSWEQKLEEMRKKEKSMPWNVDTLSKDGFSKSMVNTKPEKTEEDSEEVREQKHKTFVEKYEKQIKHFGMLRRWDDSQKYLSDNVHLVCEETANYLVIWCIDLEVEEKCALMEQVAHQTIVMQFILELAKSLKVDPRACFRQFFTKIKTADRQYMEGFNDELEAFKERVRGRAKLRIEKAMKEYEEEERKKRLGPGGLDPVEVYESLPEELQKCFDVKDVQMLQDAISKMDPTDAKYHMQRCIDSGLWVPNSKASEAKEGEEAGPGDPLLEAVPKTGDEKDVSV | 
binds | Cdc37 double-phosphomimetic mutant Y4E/Y298E (natural protein, human, UniProt Q16543 1-378, looked up, Cdc37 (p50), human, double point mutant of the full-length construct; also called Cdc37^EE; C^EE) MVDESVWDHIEVSDDEDETHPNIDTASLFRWRHQARVERMEQFQKEKEELDRGCRECKRKVAECQRKLKELEVAEGGKAELERLQAEAQQLRKEERSWEQKLEEMRKKEKSMPWNVDTLSKDGFSKSMVNTKPEKTEEDSEEVREQKHKTFVEKYEKQIKHFGMLRRWDDSQKYLSDNVHLVCEETANYLVIWCIDLEVEEKCALMEQVAHQTIVMQFILELAKSLKVDPRACFRQFFTKIKTADRQYMEGFNDELEAFKERVRGRAKLRIEKAMKEYEEEERKKRLGPGGLDPVEVEESLPEELQKCFDVKDVQMLQDAISKMDPTDAKYHMQRCIDSGLWVPNSKASEAKEGEEAGPGDPLLEAVPKTGDEKDVSV | 
 | EV[pY]ESLPEEL (Cdc37, residues 296-305; also called phosphopeptide; source: synthetic peptide (GL Biochem)) [Phosphotyrosine-modified decapeptide EVpYESLPEEL of Cdc37 (residues 296-305)] | Kd (SH2 domain of Yes): 410 nM
